Reference: FireProtDB (doi:10.1529/biophysj.106.103804)

Conditions: Bacillus licheniformis, CD, reversible: Yes
[1] = pH 6, Thermal, Sodium phosphate Sodium fluoride 25 mM 100 mM
[2] = pH 6.5, Thermal, Sodium phosphate Sodium fluoride 25 mM 100 mM
[3] = pH 7, 22 °C, Urea, Fluorescence, Thiol reactivity, Sodium phosphate 100 mM, transition: 3
[4] = pH 7, Thermal, Sodium phosphate Sodium fluoride 25 mM 100 mM
[5] = pH 7.5, Thermal, Sodium phosphate Sodium fluoride 25 mM 100 mM
[6] = pH 8, Thermal, Sodium phosphate Sodium fluoride 25 mM 100 mM

MKLWFSTLKLKKAA [wild type]
heat capacity change of unfolding [1]: 3.9 kcal/mol/K
unfolding enthalpy (van 't Hoff) [1]: 141 kcal/mol
unfolding free energy [1]: 7.2 kcal/mol
Tm [2]: 67.9 °C
unfolding enthalpy (van 't Hoff) [2]: 147 kcal/mol
denaturant midpoint (higher = more stable) [3]: 3 M
unfolding free energy [3]: 5.2 kcal/mol
Tm [4]: 67 °C
unfolding enthalpy (van 't Hoff) [4]: 140 kcal/mol
Tm [5]: 66.5 °C
unfolding enthalpy (van 't Hoff) [5]: 163 kcal/mol
Tm [6]: 65.1 °C
unfolding enthalpy (van 't Hoff) [6]: 133 kcal/mol
